B1: Pro-(X)-BMP-9 [human] / itself (parent)
chain: KPLQSWGRGSAGGNAHSPLGVPGGGLPEHTFNLKMFLENVKVDFLRSLNLSGVPSQDKTRVEPPQYMIDLYNRYTSDKSTTPASNIVRSFSMEDAISITATEDFPFQKHILLFNISIPRHEQITRAELRLYVSCQNHVDPSHDLKGSVVIYDVLDGTDAWDSATETKTFLVSQDIQDEGWETLEVSSAVKRWVRSDSTKSKNKLEVTVESHRKGCDTLDISVPPGSRNLPFFVVFSNDHSSGTKETRLELREMISHEQESVLKKLSKDGSTEAGESSHEEDTDGHVAAGSTLAIEGRSSGAGSHCQKTSLRVNFEDIGWDSWIIAPKEYEAYECKGGCFFPLADDVTPTKHAIVQTLVHLKFPTKVGKACCVPTKLSPISVLYKDDMGVPTLKYHYEGMSVAECGCR

Variants of: B1
Assay: SDS-PAGE densitometry
Conditions: with itself; IMAC column purified Pro-BMP-9

screen value | Variant
3.24 | chain 1 K335R G367S
0.7 | chain 1 K335R
1.29 | chain 1 G367S

Source: PMC12148503, “Molecular Basis of Interchain Disulfide Bond Formation in BMP-9 and BMP-10” (Journal of molecular biology, 2025)
